The values that follow come from article PMC7545097, “Mapping the native interaction surfaces of PREP1 with PBX1 by cross-linking mass-spectrometry and mutagenesis” (Scientific Reports, 2020).

This experiment has as its target T1, PREP1_(1-436), wild-type recombinant (TR-FIA) (UniProt P55347 1-436).
T1 construct: also called wild-type PREP1; PKNOX1; source: E. coli, purified
T1 sequence (looked up): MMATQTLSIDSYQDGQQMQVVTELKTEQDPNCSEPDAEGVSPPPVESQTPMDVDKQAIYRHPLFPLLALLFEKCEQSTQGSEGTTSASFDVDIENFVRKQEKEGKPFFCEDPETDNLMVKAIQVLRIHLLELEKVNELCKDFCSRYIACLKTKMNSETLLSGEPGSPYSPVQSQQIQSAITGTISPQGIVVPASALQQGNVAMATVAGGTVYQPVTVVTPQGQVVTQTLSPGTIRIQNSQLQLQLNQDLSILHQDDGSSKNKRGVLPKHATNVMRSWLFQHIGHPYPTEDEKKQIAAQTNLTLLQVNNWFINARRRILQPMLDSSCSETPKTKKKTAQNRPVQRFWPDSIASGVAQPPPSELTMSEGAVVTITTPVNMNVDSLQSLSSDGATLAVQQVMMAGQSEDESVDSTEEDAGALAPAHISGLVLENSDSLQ
Briefly: time-resolved fluorescence immunoassay (TR-FIA); plate coated with monoclonal anti-PBX1; PBX1 pre-incubated with PREP1 or MEIS1 for 1 h on ice, 10 µg/mL in 1% BSA PBS, 1 h at room temperature on the plate; detected with anti-PREP1 or biotinylated anti-MEIS1/2 and Eu^3+ conjugates; normalised to the wild-type protein taken as 1. The note with it: both partners purified.

B1: PBX1 I84A (natural protein, human, UniProt P40424 1-430, looked up)
chain: MDEQPRLMHSHAGVGMAGHPGLSQHLQDGAGGTEGEGGRKQDIGDILQQIMTITDQSLDEAQARKHALNCHRMKPALFNVLCEAKEKTVLSIRGAQEEEPTDPQLMRLDNMLLAEGVAGPEKGGGSAAAAAAAAASGGAGSDNSVEHSDYRAKLSQIRQIYHTELEKYEQACNEFTTHVMNLLREQSRTRPISPKEIERMVSIIHRKFSSIQMQLKQSTCEAVMILRSRFLDARRKRRNFNKQATEILNEYFYSHLSNPYPSEEAKEELAKKCGITVSQVSNWFGNKRIRYKKNIGKFQEEANIYAAKTAVTATNVSAHGSQANSPSTPNSAGSSSSFNMSNSGDLFMSVQSLNGDSYQGAQVGANVQSQVDTLRHVISQTGGYSDGLAASQMYSPQGISANGGWQDATTPSSVTSPTEGPGSVHSDTSN
notes: PBX1, residues 1-430; source: E. coli, purified
Regarding B1, the binding result is “binds”.

B2: PBX1 L77A/V80A/L81A (natural protein, human, UniProt P40424 1-430, looked up)
chain: MDEQPRLMHSHAGVGMAGHPGLSQHLQDGAGGTEGEGGRKQDIGDILQQIMTITDQSLDEAQARKHALNCHRMKPAAFNAACEIKEKTVLSIRGAQEEEPTDPQLMRLDNMLLAEGVAGPEKGGGSAAAAAAAAASGGAGSDNSVEHSDYRAKLSQIRQIYHTELEKYEQACNEFTTHVMNLLREQSRTRPISPKEIERMVSIIHRKFSSIQMQLKQSTCEAVMILRSRFLDARRKRRNFNKQATEILNEYFYSHLSNPYPSEEAKEELAKKCGITVSQVSNWFGNKRIRYKKNIGKFQEEANIYAAKTAVTATNVSAHGSQANSPSTPNSAGSSSSFNMSNSGDLFMSVQSLNGDSYQGAQVGANVQSQVDTLRHVISQTGGYSDGLAASQMYSPQGISANGGWQDATTPSSVTSPTEGPGSVHSDTSN
notes: as for B1
As for B2, the binding result is recorded as “binds”.

B3: PBX1 L105A/L108A/L112A (natural protein, human, UniProt P40424 1-430, looked up)
chain: MDEQPRLMHSHAGVGMAGHPGLSQHLQDGAGGTEGEGGRKQDIGDILQQIMTITDQSLDEAQARKHALNCHRMKPALFNVLCEIKEKTVLSIRGAQEEEPTDPQAMRADNMALAEGVAGPEKGGGSAAAAAAAAASGGAGSDNSVEHSDYRAKLSQIRQIYHTELEKYEQACNEFTTHVMNLLREQSRTRPISPKEIERMVSIIHRKFSSIQMQLKQSTCEAVMILRSRFLDARRKRRNFNKQATEILNEYFYSHLSNPYPSEEAKEELAKKCGITVSQVSNWFGNKRIRYKKNIGKFQEEANIYAAKTAVTATNVSAHGSQANSPSTPNSAGSSSSFNMSNSGDLFMSVQSLNGDSYQGAQVGANVQSQVDTLRHVISQTGGYSDGLAASQMYSPQGISANGGWQDATTPSSVTSPTEGPGSVHSDTSN
notes: as for B1
B3: the binding result is “binds”.

B4: PBX1 L77A/I84A (natural protein, human, UniProt P40424 1-430, looked up)
chain: MDEQPRLMHSHAGVGMAGHPGLSQHLQDGAGGTEGEGGRKQDIGDILQQIMTITDQSLDEAQARKHALNCHRMKPAAFNVLCEAKEKTVLSIRGAQEEEPTDPQLMRLDNMLLAEGVAGPEKGGGSAAAAAAAAASGGAGSDNSVEHSDYRAKLSQIRQIYHTELEKYEQACNEFTTHVMNLLREQSRTRPISPKEIERMVSIIHRKFSSIQMQLKQSTCEAVMILRSRFLDARRKRRNFNKQATEILNEYFYSHLSNPYPSEEAKEELAKKCGITVSQVSNWFGNKRIRYKKNIGKFQEEANIYAAKTAVTATNVSAHGSQANSPSTPNSAGSSSSFNMSNSGDLFMSVQSLNGDSYQGAQVGANVQSQVDTLRHVISQTGGYSDGLAASQMYSPQGISANGGWQDATTPSSVTSPTEGPGSVHSDTSN
notes: as for B1
For B4, the binding result was “binds”.

B5: PBX1 L77A/V80A (natural protein, human, UniProt P40424 1-430, looked up)
chain: MDEQPRLMHSHAGVGMAGHPGLSQHLQDGAGGTEGEGGRKQDIGDILQQIMTITDQSLDEAQARKHALNCHRMKPAAFNALCEIKEKTVLSIRGAQEEEPTDPQLMRLDNMLLAEGVAGPEKGGGSAAAAAAAAASGGAGSDNSVEHSDYRAKLSQIRQIYHTELEKYEQACNEFTTHVMNLLREQSRTRPISPKEIERMVSIIHRKFSSIQMQLKQSTCEAVMILRSRFLDARRKRRNFNKQATEILNEYFYSHLSNPYPSEEAKEELAKKCGITVSQVSNWFGNKRIRYKKNIGKFQEEANIYAAKTAVTATNVSAHGSQANSPSTPNSAGSSSSFNMSNSGDLFMSVQSLNGDSYQGAQVGANVQSQVDTLRHVISQTGGYSDGLAASQMYSPQGISANGGWQDATTPSSVTSPTEGPGSVHSDTSN
notes: as for B1
B5: the binding result is given as “binds”.

B6: PBX1 L112A (natural protein, human, UniProt P40424 1-430, looked up)
chain: MDEQPRLMHSHAGVGMAGHPGLSQHLQDGAGGTEGEGGRKQDIGDILQQIMTITDQSLDEAQARKHALNCHRMKPALFNVLCEIKEKTVLSIRGAQEEEPTDPQLMRLDNMALAEGVAGPEKGGGSAAAAAAAAASGGAGSDNSVEHSDYRAKLSQIRQIYHTELEKYEQACNEFTTHVMNLLREQSRTRPISPKEIERMVSIIHRKFSSIQMQLKQSTCEAVMILRSRFLDARRKRRNFNKQATEILNEYFYSHLSNPYPSEEAKEELAKKCGITVSQVSNWFGNKRIRYKKNIGKFQEEANIYAAKTAVTATNVSAHGSQANSPSTPNSAGSSSSFNMSNSGDLFMSVQSLNGDSYQGAQVGANVQSQVDTLRHVISQTGGYSDGLAASQMYSPQGISANGGWQDATTPSSVTSPTEGPGSVHSDTSN
notes: PBX1, residues 1-430; single alanine substitution; source: E. coli, purified
With B6, the binding result is “binds”.

B7: PBX1 L105A/L108A (natural protein, human, UniProt P40424 1-430, looked up)
chain: MDEQPRLMHSHAGVGMAGHPGLSQHLQDGAGGTEGEGGRKQDIGDILQQIMTITDQSLDEAQARKHALNCHRMKPALFNVLCEIKEKTVLSIRGAQEEEPTDPQAMRADNMLLAEGVAGPEKGGGSAAAAAAAAASGGAGSDNSVEHSDYRAKLSQIRQIYHTELEKYEQACNEFTTHVMNLLREQSRTRPISPKEIERMVSIIHRKFSSIQMQLKQSTCEAVMILRSRFLDARRKRRNFNKQATEILNEYFYSHLSNPYPSEEAKEELAKKCGITVSQVSNWFGNKRIRYKKNIGKFQEEANIYAAKTAVTATNVSAHGSQANSPSTPNSAGSSSSFNMSNSGDLFMSVQSLNGDSYQGAQVGANVQSQVDTLRHVISQTGGYSDGLAASQMYSPQGISANGGWQDATTPSSVTSPTEGPGSVHSDTSN
notes: as for B1
For B7, the binding result was “binds”.

B8: PBX1 L108A (natural protein, human, UniProt P40424 1-430, looked up)
chain: MDEQPRLMHSHAGVGMAGHPGLSQHLQDGAGGTEGEGGRKQDIGDILQQIMTITDQSLDEAQARKHALNCHRMKPALFNVLCEIKEKTVLSIRGAQEEEPTDPQLMRADNMLLAEGVAGPEKGGGSAAAAAAAAASGGAGSDNSVEHSDYRAKLSQIRQIYHTELEKYEQACNEFTTHVMNLLREQSRTRPISPKEIERMVSIIHRKFSSIQMQLKQSTCEAVMILRSRFLDARRKRRNFNKQATEILNEYFYSHLSNPYPSEEAKEELAKKCGITVSQVSNWFGNKRIRYKKNIGKFQEEANIYAAKTAVTATNVSAHGSQANSPSTPNSAGSSSSFNMSNSGDLFMSVQSLNGDSYQGAQVGANVQSQVDTLRHVISQTGGYSDGLAASQMYSPQGISANGGWQDATTPSSVTSPTEGPGSVHSDTSN
notes: as for B6
B8: the binding result was “binds”.

B9: PBX1 V80A (natural protein, human, UniProt P40424 1-430, looked up)
chain: MDEQPRLMHSHAGVGMAGHPGLSQHLQDGAGGTEGEGGRKQDIGDILQQIMTITDQSLDEAQARKHALNCHRMKPALFNALCEIKEKTVLSIRGAQEEEPTDPQLMRLDNMLLAEGVAGPEKGGGSAAAAAAAAASGGAGSDNSVEHSDYRAKLSQIRQIYHTELEKYEQACNEFTTHVMNLLREQSRTRPISPKEIERMVSIIHRKFSSIQMQLKQSTCEAVMILRSRFLDARRKRRNFNKQATEILNEYFYSHLSNPYPSEEAKEELAKKCGITVSQVSNWFGNKRIRYKKNIGKFQEEANIYAAKTAVTATNVSAHGSQANSPSTPNSAGSSSSFNMSNSGDLFMSVQSLNGDSYQGAQVGANVQSQVDTLRHVISQTGGYSDGLAASQMYSPQGISANGGWQDATTPSSVTSPTEGPGSVHSDTSN
notes: as for B1
In the case of B9, the binding result is on record as “binds”.

B10: PBX1 L81A (natural protein, human, UniProt P40424 1-430, looked up)
chain: MDEQPRLMHSHAGVGMAGHPGLSQHLQDGAGGTEGEGGRKQDIGDILQQIMTITDQSLDEAQARKHALNCHRMKPALFNVACEIKEKTVLSIRGAQEEEPTDPQLMRLDNMLLAEGVAGPEKGGGSAAAAAAAAASGGAGSDNSVEHSDYRAKLSQIRQIYHTELEKYEQACNEFTTHVMNLLREQSRTRPISPKEIERMVSIIHRKFSSIQMQLKQSTCEAVMILRSRFLDARRKRRNFNKQATEILNEYFYSHLSNPYPSEEAKEELAKKCGITVSQVSNWFGNKRIRYKKNIGKFQEEANIYAAKTAVTATNVSAHGSQANSPSTPNSAGSSSSFNMSNSGDLFMSVQSLNGDSYQGAQVGANVQSQVDTLRHVISQTGGYSDGLAASQMYSPQGISANGGWQDATTPSSVTSPTEGPGSVHSDTSN
notes: as for B1
In the case of B10, the binding result was “binds”.

B11: PBX1 L105A (natural protein, human, UniProt P40424 1-430, looked up)
chain: MDEQPRLMHSHAGVGMAGHPGLSQHLQDGAGGTEGEGGRKQDIGDILQQIMTITDQSLDEAQARKHALNCHRMKPALFNVLCEIKEKTVLSIRGAQEEEPTDPQAMRLDNMLLAEGVAGPEKGGGSAAAAAAAAASGGAGSDNSVEHSDYRAKLSQIRQIYHTELEKYEQACNEFTTHVMNLLREQSRTRPISPKEIERMVSIIHRKFSSIQMQLKQSTCEAVMILRSRFLDARRKRRNFNKQATEILNEYFYSHLSNPYPSEEAKEELAKKCGITVSQVSNWFGNKRIRYKKNIGKFQEEANIYAAKTAVTATNVSAHGSQANSPSTPNSAGSSSSFNMSNSGDLFMSVQSLNGDSYQGAQVGANVQSQVDTLRHVISQTGGYSDGLAASQMYSPQGISANGGWQDATTPSSVTSPTEGPGSVHSDTSN
notes: as for B6
As to B11, the binding result is “binds”.
